Experimental data from publication PMC10215022.

Key:
[1] = target: SARS-CoV-2 Wuhan (WT) spike protein RBD, His-tagged (SARS-CoV-2 Wuhan (WT)) (UniProt P0DTC2); assay: SPR
[2] = target: SARS-CoV-2 Omicron BA.5 spike protein, plate-bound (MSD V-PLEX) (SARS-CoV-2 Omicron BA.5)

decavalent IgM ACE2 decoy (from UniProt Q9BYF1;P01591) (Fc fusion)
Kd [1]: 0.097 nM | koff [1]: 3.5e-05 s⁻¹ | kon [1]: 380000 M⁻¹ s⁻¹

REGEN-COV mAb cocktail (casirivimab and imdevimab at 1:1 molar ratio)
IC50 [2]: 5.2 nM
